Test results from publication PMC3987903.

Molecular target: GST-LT-Ag (HPD to AAA) mutant (JC virus (JCV)) (UniProt P03072)
Test: pull-down

Sequence of human heat shock protein Hsp70 (P0DMV8 whole entry): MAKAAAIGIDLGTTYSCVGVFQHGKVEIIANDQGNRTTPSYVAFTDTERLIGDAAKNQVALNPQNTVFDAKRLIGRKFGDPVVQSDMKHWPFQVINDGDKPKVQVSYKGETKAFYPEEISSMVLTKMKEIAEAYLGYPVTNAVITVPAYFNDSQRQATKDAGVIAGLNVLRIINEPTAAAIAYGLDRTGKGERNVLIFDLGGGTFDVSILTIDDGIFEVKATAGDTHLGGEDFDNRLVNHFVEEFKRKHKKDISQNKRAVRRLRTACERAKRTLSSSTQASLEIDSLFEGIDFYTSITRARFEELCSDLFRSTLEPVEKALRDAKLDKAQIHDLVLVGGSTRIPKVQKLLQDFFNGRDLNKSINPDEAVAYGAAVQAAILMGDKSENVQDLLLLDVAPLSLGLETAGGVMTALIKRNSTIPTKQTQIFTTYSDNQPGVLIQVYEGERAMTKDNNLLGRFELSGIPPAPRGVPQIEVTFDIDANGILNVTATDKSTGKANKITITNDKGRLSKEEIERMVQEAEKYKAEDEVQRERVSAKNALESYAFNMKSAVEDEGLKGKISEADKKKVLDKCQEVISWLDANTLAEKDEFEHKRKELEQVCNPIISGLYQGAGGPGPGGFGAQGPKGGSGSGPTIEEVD

human heat shock protein Hsp70 (from UniProt P0DMV8 1-641) (natural protein)
reduction of the interaction against WT: > 50%
